From patent publication US8357523B2, “Beta-glucosidase variant enzymes and related polynucleotides” (Codexis, Inc., priority 2009, dated 2013)
Positions count from the first letter of the chain named.

B1: 108 (protein)
chain: STAIAQEGAAPAAILHPEKWPRPATQRLIDPAVEKRVDALLKQLSVEEKVGQVIQGDIGTITPEDLRKYPLGSILAGGNSGPNGDDRAPPKEWLDLADAFYRVSLEKRPGHTPIPVLFGIDAVHGHGNIGSATIFPHNIALGATRDPELLRRIGEVTAVEMAATGIDWTFAPALSVVRDDRWGRTYEGFSEDPEIVAAYSAAIVEGVQGKFGSKDFMAPGRIVASAKHFLADGGTDQGRDQGDARISEDELIRIHNAGYPPAIDAGVLTVMASFSSWQGIKHHGHKQLLTDVLKGQMGFNGFIVGDWNAHDQVPGCTKFNCPTSLIAGLDMYMAADSWKQLYENTLAQVKDGTIPMARLDDAVRRILRVKVLAGLFEKPAPKDRPGLPGLETLGSPEHRAVGREAVRKSLVLLKNDKGTLPLSPKARVLVAGDGADNIGKQSGGWTISWQGTGNRNDEFPGATSILGGIRDAVADAGGSVEFDVAGQYKTKPDVAIVVFGEEPYAEFQGDVETLEYQPDQKQDLALLKKLKDQGIPVVAVFLSGRPMWVNPELNASDAFVAAWLPGTEGGGVADVLFTDKAGKVQHDFAGKLSYSWPRTAAQTTVNRGDADYNPLFAYGYGLTYKDKSKVGTLPEESGVP
B2: 107 (protein)
chain: STAIAQEGAAPAAILHPEKWPRPATQRLIDPAVEKRVDALLKQLSVEEKVGQVIQGDIGTITPEDLRKYPLGSILAGGNSGPNGDDRAPPKEWLDLADAFYRVSLEKRPGHTPIPVLFGIDAVHGHGNIGSATIFPHNIALGATRDPELLRRIGEVTAVEMAATGIDWTFAPALSVVRDDRWGRTYEGFSEDPEIVAAYSAAIVEGVQGKFGSKDFMAPGRIVASAKHFLADGGTDQGRDQGDARISEDELIRIHNAGYPPAIDAGVLTVMASFSSWQGIKHHGHKQLLTDVLKGQMGFNGFIVGDWNAHDQVPGCTKFNCPTSLIAGLDMYMAADSWKQLYENTLAQVKDGTIPMARLDDAVRRILRVKVLAGLFEKPAPKDRPGLPGLETLGSPEHRAVGREAVRKSLVLLKNDKGTLPLSPKARVLVAGDGADNIGKQSGGWTISWQGTGNRNDEFPGATSILGGIRDAVADAGGSVEFDVAGQYKTKPDVAIVVFGEEPYAEFQGDVETLEYQPDQKQDLALLKKLKDQGIPVVAVFLSGRPMWVNPELNASDAFVAAWLPGTEGGGVADVLFTDKAGKVQHDFAGKLSYSWPRTAAQTTVNRGDADYNPLFAYGYGLTYKDKSKVGTLPEESGVPAEAR
B3: 109 (protein)
chain: STAIAQEGAAPAAILHPEKWPRPATQRLIDPAVEKRVDALLKQLSVEEKVGQVIQGDIGTITPEDLRKYPLGSILAGGNSGPNGDDRAPPKEWLDLADAFYRVSLEKRPGHTPIPVLFGIDAVHGHGNIGSATIFPHNIALGATRDPELLRRIGEVTAVEMAATGIDWTFAPALSVVRDDRWGRTYEGFSEDPEIVAAYSAAIVEGVQGKFGSKDFMAPGRIVASAKHFLADGGTDQGRDQGDARISEDELIRIHNAGYPPAIDAGVLTVMASFSSWQGIKHHGHKQLLTDVLKGQMGFNGFIVGDWNAHDQVPGCTKFNCPTSLIAGLDMYMAADSWKQLYENTLAQVKDGTIPMARLDDAVRRILRVKVLAGLFEKPAPKDRPGLPGLETLGSPEHRAVGREAVRKSLVLLKNDKGTLPLSPKARVLVAGDGADNIGKQSGGWTISWQGTGNRNDEFPGATSILGGIRDAVADAGGSVEFDVAGQYKTKPDVAIVVFGEEPYAEFQGDVETLEYQPDQKQDLALLKKLKDQGIPVVAVFLSGRPMWVNPELNASDAFVAAWLPGTEGGGVADVLFTDKAGKVQHDFAGKLSYSWPRTAAQTTVNRGDADYNPLFAYGYGLTYKDKSKVGTLPEESGVPAEARQNAGIYFRAGALRLPGRF
B4: 111 (protein)
chain: STAIAQEGAAPAAILHPEKWPRPATQRLIDPAVEKRVDALLKQLSVEEKVGQVIQGDIGTITPEDLRKYPLGSILAGGNSGPNGDDRAPPKEWLDLADAFYRVSLEKRPGHTPIPVLFGIDAVHGHGNIGSATIFPHNIALGATRDPELLRRIGEVTAVEMAATGIDWTFAPALSVVRDDRWGRTYEGFSEDPEIVAAYSAAIVEGVQGKFGSKDFMAPGRIVASAKHFLADGGTDQGRDQGDARISEDELIRIHNAGYPPAIDAGVLTVMASFSSWQGIKHHGHKQLLTDVLKGQMGFNGFIVGDWNAHDQVPGCTKFNCPTSLIAGLDMYMAADSWKQLYENTLAQVKDGTIPMARLDDAVRRILRVKVLAGLFEKPAPKDRPGLPGLETLGSPEHRAVGREAVRKSLVLLKNDKGTLPLSPKARVLVAGDGADNIGKQSGGWTISWQGTGNRNDEFPGATSILGGIRDAVADAGGSVEFDVAGQYKTKPDVAIVVFGEEPYAEFQGDVETLEYQPDQKQDLALLKKLKDQGIPVVAVFLSGRPMWVNPELNASDAFVAAWLPGTEGGGVADVLFTDKAGKVQHDFAGKLSYSWPRTAAQTTVNRGDADYNPLFAYGYGLTYKDKSKVGTLPEESGVPAEARQNAGIYFR
B5: 110 (protein)
chain: STAIAQEGAAPAAILHPEKWPRPATQRLIDPAVEKRVDALLKQLSVEEKVGQVIQGDIGTITPEDLRKYPLGSILAGGNSGPNGDDRAPPKEWLDLADAFYRVSLEKRPGHTPIPVLFGIDAVHGHGNIGSATIFPHNIALGATRDPELLRRIGEVTAVEMAATGIDWTFAPALSVVRDDRWGRTYEGFSEDPEIVAAYSAAIVEGVQGKFGSKDFMAPGRIVASAKHFLADGGTDQGRDQGDARISEDELIRIHNAGYPPAIDAGVLTVMASFSSWQGIKHHGHKQLLTDVLKGQMGFNGFIVGDWNAHDQVPGCTKFNCPTSLIAGLDMYMAADSWKQLYENTLAQVKDGTIPMARLDDAVRRILRVKVLAGLFEKPAPKDRPGLPGLETLGSPEHRAVGREAVRKSLVLLKNDKGTLPLSPKARVLVAGDGADNIGKQSGGWTISWQGTGNRNDEFPGATSILGGIRDAVADAGGSVEFDVAGQYKTKPDVAIVVFGEEPYAEFQGDVETLEYQPDQKQDLALLKKLKDQGIPVVAVFLSGRPMWVNPELNASDAFVAAWLPGTEGGGVADVLFTDKAGKVQHDFAGKLSYSWPRTAAQTTVNRGDADYNPLFAYGYGLTYKDKSKVGTLPEESGVPAE
B6: 112 (protein)
chain: STAIAQEGAAPAAILHPEKWPRPATQRLIDPAVEKRVDALLKQLSVEEKVGQVIQGDIGTITPEDLRKYPLGSILAGGDSGPNGDDRAPPKEWLDLADAFYRVSLEKRPGHTPIPVLFGIDAVHGHGKIGSATIFPHNIALGMTRDPELLRRIGEVTAEEMAATGIDWTFAPCLSVVRDDRWGRTYEGFSEDPEIVAAYSAAIVEGVQGKFGSKDFMAPGRIVASAKHFLADGGTDQGRDQGDARISEDELIRIHNAGYPPAIDAGVLTVMASFSSWQGIKHHGHKQLLTDVLKGQMGFNGFIVGDWNAHDQVPGCTKFNCPTSLIAGLDMYMAADSWKQLYENTLAQVKDGTIPMARLDDAVRRILRVKVLAGLFEKPAPKDRPGLPGLETLGSPEHRAVGREAVRKSLVLLKNDKGTLPLSPKARVLVAGDGADNIGKQSGGWTISWQGTGNRNDEFPGATSILGGIRDAVADAGGSVEFDVAGQYKTKPDVAIVVFGEEPYAEFQGDVETLEYQPDQKQDLALLKKLKDQGIPVVAVFLSGRPMWVNPELNASDAFVAAWLPGTEGGGVADVLFTDKAGKVQHDFAGKLSYSWPRTAAQTTVNRGDADYNPLFAYGYGLTYKDKSKVGTLPEESGVPAEARQNAGIYFRAGALRLPGRFL
B7: 114 (protein)
chain: B6 chain with A97T, F211Y, Q508R
B8: 125 (protein)
chain: B6 chain with D79N, K128N, M143A, E159V, C173A, A201P, I222S, S225C
B9: 120 (protein)
chain: B6 chain with K128N, M143A, E159V, A162T, C173A, A198S, L663P
B10: 119 (protein)
chain: B6 chain with D79N, K128N, M143A, E159Q, C173A, A201P, F211Y, S225C
B11: 115 (protein)
chain: B6 chain with M143A, E159V, A163T, A201P, F211Y, S225C, Q487R, A562P
B12: 124 (protein)
chain: B6 chain with K128N, M143A, D146S, C173A, A201P, F211Y, S225C, K339R
B13: 126 (protein)
chain: B6 chain with K128N, E159V, A162T, C173A, A201P, S225C, Q585R
B14: 121 (protein)
chain: B6 chain with D79N, K128N, M143A, D146S, E159V, A162T, A201P
B15: 122 (protein)
chain: B6 chain with M143A, C173A, A201P, F211Y, P219V, S225C
B16: 118 (protein)
chain: B6 chain with E159V, A162T, C173A, A198S, F211Y, I222S, S225C
B17: 113 (protein)
chain: B6 chain with D79N, E159Q, C173A, A201P, F211Y, S225C
B18: 123 (protein)
chain: B6 chain with E159V, A162T, C173A, A201P, F211Y, P219V
B19: 116 (protein)
chain: B6 chain with M143A, E159V, A162T, C173A, F211Y, S225C, K625Q

assay: High throughput cellobiose assay: fold improvement in cellobiase activity of CelA variants over a control enzyme (Tables 2A-2D, 3, 5, 6, 7); type: biochemical; settings: 3.3 g/l cellobiose, 55° C. and pH 6.0

Molecule	Fold improvement over Control Variant No. 5 from Table 2A
B1	++ (++ = 1.1 to 6 fold improvement over control Variant No. 2)
B2	++ (++ = 1.1 to 6 fold improvement over control Variant No. 2)
B3	++ (++ = 1.1 to 6 fold improvement over control Variant No. 2)
B4	++ (++ = 1.1 to 6 fold improvement over control Variant No. 2)
B5	++ (++ = 1.1 to 6 fold improvement over control Variant No. 2)
B6	+++ (+++ = 6 to 13 fold improvement over control Variant No. 2)
B7	+++ (+++ = 6 to 13 fold improvement over control Variant No. 2)
B8	+++ (+++ = 6 to 13 fold improvement over control Variant No. 2)
B9	+++ (+++ = 6 to 13 fold improvement over control Variant No. 2)
B10	+++ (+++ = 6 to 13 fold improvement over control Variant No. 2)
B11	++ (++ = 1.1 to 6 fold improvement over control Variant No. 2)
B12	+++ (+++ = 6 to 13 fold improvement over control Variant No. 2)
B13	++ (++ = 1.1 to 6 fold improvement over control Variant No. 2)
B14	++ (++ = 1.1 to 6 fold improvement over control Variant No. 2)
B15	+++ (+++ = 6 to 13 fold improvement over control Variant No. 2)
B16	+++ (+++ = 6 to 13 fold improvement over control Variant No. 2)
B17	+++ (+++ = 6 to 13 fold improvement over control Variant No. 2)
B18	++ (++ = 1.1 to 6 fold improvement over control Variant No. 2)
B19	+++ (+++ = 6 to 13 fold improvement over control Variant No. 2)
